From patent US20120053119A1, “THERAPEUTIC METHOD FOR INCREASING PANCREATIC BETA CELL MASS” (priority 2009, published 2012) come the findings set out here.

For this assay, the target named is SDF-1 receptor CXCR4 on INS-1 clonal beta cells (UniProt O08565). The assay is described as follows: cell-based or functional assay.
SDF-1 receptor CXCR4 on INS-1 clonal beta cells, sequence (O08565 whole entry): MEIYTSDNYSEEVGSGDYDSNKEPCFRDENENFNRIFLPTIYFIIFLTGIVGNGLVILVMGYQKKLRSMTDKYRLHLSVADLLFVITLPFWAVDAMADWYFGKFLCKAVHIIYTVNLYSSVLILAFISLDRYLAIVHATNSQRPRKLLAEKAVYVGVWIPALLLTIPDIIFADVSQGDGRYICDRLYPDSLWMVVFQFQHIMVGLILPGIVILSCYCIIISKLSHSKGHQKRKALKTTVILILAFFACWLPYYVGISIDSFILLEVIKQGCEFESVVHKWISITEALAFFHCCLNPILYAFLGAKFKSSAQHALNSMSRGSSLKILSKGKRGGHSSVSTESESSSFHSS

“stromal cell-derived factor-1 (SDF-1) (ligand)” had a Wnt signaling reporter assay (TOPflash/FOPflash luciferase) in INS-1 cells of 0.4 nM.
